Protein production data for 8 sequences are collected here from a protein production outcome set (Wang et al. 2014).

A short description of this data set: label from the status in PepcDB records.
For the sequence “MAGAQPGVHALQLEPPTVVETLRRGSKFIKWDEETSSRNLVTLRVDPNGFFLYWTGPNMEVDTLDISSIRDTRTGRYARLPKDPKIREVLGFGGPDARLEEKLMTVVSGPDPVNTVFLNFMAVQDDTAKVWSEELFKLAMNILAQNASRNTFLRKAYTKLKLQVNQDGRIPVKNILKMFSADKKRVETALESCGLKFNRSESIRPDEFSLEIFERFLNKLCLRPDIDKILLEIGAKGKPYLTLEQLMDFINQKQRDPRLNEVLYPPLRPSQARLLIEKYEPNQQFLERDQMSMEGFSRYLGGEENGILPLEALDLSTDMTQPLSAYFINSSHNTYLTAGQLAGTSSVEMYRQALLWGCRCVELDVWKGRPPEEEPFITHGFTMTTEVPLRDVLEAIAETAFKTSPYPVILSFENHVDSAKQQAKMAEYCRSIFGDALLIEPLDKYPLAPGVPLPSPQDLMGRILVKNKKRHRPSAGGPDSAGRKRPL”, the protein production entry is on record as “failed”. The entry for “MYEEWKIVKREAPILGNDQLIENIWKMKREDSPYDIISLHKVNLIGGGNDAVLILPGTWSSGEQLVTISWNGVHYTIPDYRKSIVLYLARNGFNVYTIDYRTHYVPPFLKDRQLSFTANWGWSTWISDIKEVVSFIKRDSGQERIYLAGESFGGIAALNYSSLYWKNDIKGLILLDGGPTKHGIRPKFYTPEVNSIEEMEAKGIYVIPSRGGPNNPIWSYALANPDMPSPDPKYKSISDFLMDSLYVTGSANPYDYPYSKKEDMFPILASFDPYWPYRLSLERDLKFDYEGILVPTIAFVSERFGIQIFDSKILPSNSEIILLKGYGHLDVYTGENSEKDVNSVVLKWLSQQR” is “not failed”; for “MIRAAAKFSREAAATIRGRTISVRGNLIRYSTPLRLIHGEISVPNANHVAIQMVNYALSHARSQKSDESYAQGMLVLEQCLGNQPNDDQVSHDSKATVLLAMSDLLYESGNSSEAIERLKQVMTLTHSSLAIRVVAVEALVGLLIQSGQDDASLDVADEFLKLVKESGHENLQGVVATVKAIKGLAELVKGNIESAESLFRGLENHESCKGNIALSYGEYLHATGNFELAKEMYQKAIQGVTETKESMCSCNMNLKAVSLAATFALGQLESHIGNFGVAEKTLTDALTKTEEHYGDNHPKVGVILTAVALMYGNKAKQERSSSILIQEGLYRKALELMKAPPLDSKGIINMENQEVIALARAGYAELLLIQENRKSEGEKMKSWAESAWRNKRISLSEALTLSEPLGKVAIIDARTTRVL” it is “failed”.

With “MALLRRFIGQKVRTVIQVTGSEIGSVVGKSTDDLQIVVRGSSPPSPLTTYLEVIGIAESDNAIRAETWTNFGNTFDTQNYNELCKLAN”, the protein production entry is “failed”. The entry for “AQQQELPVPKPHQLKWHEAEMGAVFHYDLHVFDGIRYGQGNNRINPIEDYNIFNPTELNTDQWVQAAKAAGCKFAVLTATHETGFGLWQSDVNPYCLKAVKWRDGKGDIVRDFVNSCRKYGLQPGIYIGIRWNSLLGIHNFKAEGEGAFARNRQAWYKRLCEKMVTELCTRYGDLYMIWFDGGADDPRADGPDVEPIVNKYQPNCLFYHNIDRADFRWGGSETGTVEYPCWSTFPVPCSHHKRIESSIDQLELLKHGDKNGRYWVPAMADTPLRGANGRHEWFWEPDDENNIYPLNTLMDKYEKSVGRNATLILGLTPDPTGLIPAGDAQRLKEMGDEINRRFSSPIARISGQKKSLTLKLGKEQSVNYCIIQENIKNGERIRQYQIEAKVNGKWQTVCKGESVGHKRIEKFEPVEATALRLTVSESIALPDIINFSAYSVK” is “not failed”; for “LEAPRDLEAKEVTPRTALLTWTEPPVRPAGYLLSFHTPGGQTQEILLPGGITSHQLLGLFPSTSYNARLQAMWGQSLLPPVSTSFTTGGLRI” it is “not failed”.

Turning to “EGWMDEPDWRRFITAYHQEHAGITEQLFSLADTSPYAWLAEPLRAVEGTVLDLACGSAPTRQELPDADWVGVDLSAAELAEAARQGRGPLLRAAADALPAASASVGAVCAAMCLPVVTPLPQTLGEIRRVLRPGGVLAALVPSQSGLSPSGMLGWVRVMAALRAVRQPWPNPQARDGLPALLRTAGFRVRRDERHVFTLAIDSAGAAALLADALYLPGLTTHRAQAAKR”, the protein production entry is recorded as “failed”.

In the case of “MNRPHSATGDRPLALVDEHAHAWSPKTARARFRKGLTGPTAGVAAGHTQANLISVPADWAYDMLLFCTRNPQPCPVLDVTDAGSWTTVLADGADLRTDLPRYRVWRDGELVDEPSDVREHWRDDLVTFLIGCSFTFEWALAAAGVPIRHVEQGRNVPMYVTSRACRPAGRLRGPMVVSMRPVPPAHLSAAIHESSLLPAVHGSPVHCGDPSALGIDDLDRPDFGEAVYREPDDIPVFWACGVTPQAAVMASRPPFALTHAPGQMFLTDARDEQYRVALEHHHHHH”, the protein production result was “failed”.
